Positions count from the first letter of the chain named. “And” between values parts separate entries of the source, which are not always exact repeats. Equal values may be shown once.
Assays:
[1] = target: T1, HER2 (ErbB2) expressed on human cells (SkBr-3, NCI-H661, 786-O cancer cells; human cardiomyocytes) (human, UniProt P04626 23-1255); assay: cell-based or functional assay
[2] = target: T2, fusion protein of human NKG2D and murine Fc (human, UniProt P26718 78-216); assay: SPR at 37 C, steady state affinity fit, average of two independent experiments
T2 construct: also called mFc-hNKG2D; not shown: murine Fc
T2 sequence (looked up): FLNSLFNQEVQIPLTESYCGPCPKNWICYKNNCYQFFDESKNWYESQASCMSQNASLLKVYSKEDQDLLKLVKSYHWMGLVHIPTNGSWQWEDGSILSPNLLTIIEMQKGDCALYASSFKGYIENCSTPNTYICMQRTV
Description: (§1) Steady state affinity fit was utilized to obtain the equilibrium affinity data.

[3] = target: T2, fusion protein of human NKG2D and …; assay: SPR at 37 C, mFc-hNKG2D captured, TriNKET as analyte, steady state affinity fit
Description: as §1

[4] = target: T2, fusion protein of human NKG2D and …; assay: SPR at 37 C, mFc-hNKG2D captured, TriNKET as analyte, steady state affinity fit; reference TriNKET A
Description: as §1

[5] = target: T2, fusion protein of human NKG2D and …; assay: SPR at 37 C, steady state affinity fit, average of three independent experiments
Description: as §1

[6] = target: T1, HER2 (ErbB2) expressed on human cells …; assay: flow cytometry on SkBr-3 cells, anti-human IgG secondary, % of maximum MFI
Experimental: (§2) All three cell lines were used to assess their binding affinity to TriNKET. TriNKETs were diluted in a series of concentrations, and were incubated with the respective cells.

[7] = target: T1, HER2 (ErbB2) expressed on human cells …; assay: flow cytometry on H661 cells, anti-human IgG secondary, fold over background (control TriNKET)
Experimental: (§3) TriNKETs were diluted to 3.8e-4 to 100 μg/mL, and the dilutions were used as primary antibody stain. Binding of the TriNKET was detected using a fluorophore-conjugated anti-human IgG secondary antibody. Cells were analyzed by flow cytometry. Binding fluorescence intensity (MFI) to cells expressing HER2 was normalized to cells stained with a control (non-specific) TriNKET to obtain fold over background (FOB) values.

[8] = target: T1, HER2 (ErbB2) expressed on human cells …; assay: flow cytometry on SKBR3 cells, anti-human IgG secondary, fold over background (control TriNKET)
Experimental: as §3

[9] = target: T1, HER2 (ErbB2) expressed on human cells …; assay: flow cytometry on SkBr-3 cells, anti-human IgG secondary, fold over background (secondary only)
Experimental: as §2

[10] = target: T1, HER2 (ErbB2) expressed on human cells …; assay: flow cytometry on human cardiomyocytes, anti-human IgG secondary, fold over background (control TriNKET)
Experimental: as §3

B1: TriNKET A* (mutant form of TriNKET A having a substitution of Ile for the Met at position 102) (bispecific antibody, human IgG1)
heavy: EVQLVESGGGLVKPGGSLRLSCAASGFTFSSYSMNWVRQAPGKGLEWVSSISSSSSYIYYADSVKGRFTISRDNAKNSLYLQMNSLRAEDTAVYYCARGAPIGAAAGWFDPWGQGTLVTVSSASTKGPSVFPLAPSSKSTSGGTAALGCLVKDYFPEPVTVSWNSGALTSGVHTFPAVLQSSGLYSLSSVVTVPSSSLGTQTYICNVNHKPSNTKVDKKVEPKSCDKTHTCPPCPAPELLGGPSVFLFPPKPKDTLMISRTPEVTCVVVDVSHEDPEVKFNWYVDGVEVHNAKTKPREEQYNSTYRVVSVLTVLHQDWLNGKEYKCKVSNKALPAPIEKTISKAKGQPREPQVCTLPPSRDELTENQVSLTCLVKGFYPSDIAVEWESNGQPENNYKTTPPVLDSDGSFFLYSWLTVDKSRWQQGNVFSCSVMHEALHNHYTQKSLSLSPG
scFv: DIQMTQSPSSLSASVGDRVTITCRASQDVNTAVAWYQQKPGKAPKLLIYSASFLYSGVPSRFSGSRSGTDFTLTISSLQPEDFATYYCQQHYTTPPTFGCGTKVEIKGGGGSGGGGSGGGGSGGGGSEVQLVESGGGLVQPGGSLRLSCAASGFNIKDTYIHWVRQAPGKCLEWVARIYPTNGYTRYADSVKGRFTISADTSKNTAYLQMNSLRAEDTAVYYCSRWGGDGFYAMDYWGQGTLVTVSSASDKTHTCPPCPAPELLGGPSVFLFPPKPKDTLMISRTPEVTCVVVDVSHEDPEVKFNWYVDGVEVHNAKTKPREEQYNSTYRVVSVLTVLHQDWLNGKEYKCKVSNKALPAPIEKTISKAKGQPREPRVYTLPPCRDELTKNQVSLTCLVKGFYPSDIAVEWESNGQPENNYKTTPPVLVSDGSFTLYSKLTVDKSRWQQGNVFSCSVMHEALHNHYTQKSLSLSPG
light: DIQMTQSPSSVSASVGDRVTITCRASQGISSWLAWYQQKPGKAPKLLIYAASSLQSGVPSRFSGSGSGTDFTLTISSLQPEDFATYYCQQGVSFPRTFGGGTKVEIKRTVAAPSPPSDEQLKSGTASVVCLLNNFYPREAKVQWKVDNALQSGNSQESVTEQDSKDSTYSLSSTLTLSKADYEKHKVYACEVTHQGLSSPVTKSFNRGEC
notes: also called M102 variant
EC50 (nM), % specific lysis of SKBR-3 target cells by KHYG-1-CD16V cells (DELFIA) [1]: 0.65 nM
Kd [2]: 481 nM
Kd [3]: 509 nM and 454 nM
fold reduced affinity compared to TriNKET A [4]: < 2 fold

B2: A49-F3'-TriNKET-Trastuzumab (bispecific antibody, human IgG1)
heavy: B1 heavy with I102M
scFv: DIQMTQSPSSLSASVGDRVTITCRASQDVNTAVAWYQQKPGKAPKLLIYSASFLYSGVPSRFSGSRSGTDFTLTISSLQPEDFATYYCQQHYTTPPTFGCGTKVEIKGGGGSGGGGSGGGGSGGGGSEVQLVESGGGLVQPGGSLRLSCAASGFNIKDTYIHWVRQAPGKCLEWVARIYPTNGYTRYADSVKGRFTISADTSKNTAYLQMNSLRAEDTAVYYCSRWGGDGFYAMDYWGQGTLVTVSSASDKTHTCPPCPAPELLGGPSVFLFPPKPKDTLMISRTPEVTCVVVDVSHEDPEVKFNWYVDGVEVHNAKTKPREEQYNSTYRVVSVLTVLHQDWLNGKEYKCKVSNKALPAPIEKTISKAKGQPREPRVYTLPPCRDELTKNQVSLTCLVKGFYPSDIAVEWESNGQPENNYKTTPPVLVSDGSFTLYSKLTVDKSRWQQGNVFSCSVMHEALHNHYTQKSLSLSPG
light: B1 light
notes: also called TriNKET A; HER2-F3'-TriNKET-A49
EC50 (nM), % specific lysis of SKBR-3 target cells by KHYG-1-CD16V cells (DELFIA) [1]: 0.39 nM
Kd [3]: 370 nM and 328 nM and 313 nM
Kd [5]: 337 nM
EC50 (read off the curve) [6]: ~10 nM
EC50 (read off the curve) [7]: ~0.3 µg/mL
EC50 (read off the curve) [8]: ~0.3 µg/mL
EC50 (read off the curve) [9]: ~10 nM
EC50 (read off the curve) [10]: ~0.4 µg/mL
